# Measurements published in PMC3075490.
# T1: [4Fe-4S]-NsrR-His6 (anaerobically purified) (Bacillus subtilis (JH642 background), UniProt O07573 1-146)
# T1 sequence: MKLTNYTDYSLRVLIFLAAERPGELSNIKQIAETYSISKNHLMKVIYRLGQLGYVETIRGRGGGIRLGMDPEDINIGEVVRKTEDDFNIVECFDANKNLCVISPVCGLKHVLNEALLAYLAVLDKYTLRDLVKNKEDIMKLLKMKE
# Target: T1, [4Fe-4S]-NsrR-His6 (anaerobically …)
# Experiment: EMSA
binder,measurement,value
GCATAACATGTATCTTAAATATTCCTTTCG (ssDNA) [nasD coding strand 30-mer oMN09-489],binding result,no binding
